B1: N^ε1-[2-[2-[2-[[2-[2-[2-[[(4S)-4-carboxy-4-(19-carboxynonadecanoylamino)butanoyl]amino]ethoxy]ethoxy]acetyl]amino]ethoxy]ethoxy]acetyl]-[Arg17,Pro21,Pro27,Glu35 … (peptide)
peptide: K([AEEA-AEEA-γGlu-C20 diacid])CNTATCATQRLANFLRHSSPNFGAIPSSTNVGSETY-NH2
modifications: disulfide 2-7; N-terminus assumed
SMILES: CC[C@H](C)[C@H](NC(=O)[C@H](C)NC(=O)CNC(=O)[C@H](Cc1ccccc1)NC(=O)[C@H](CC(N)=O)NC(=O)[C@@H]1CCCN1C(=O)[C@H](CO)NC(=O)[C@H](CO)NC(=O)[C@H](Cc1c[nH]cn1)NC(=O)[C@H](CCCNC(=N)N)NC(=O)[C@H](CC(C)C)NC(=O)[C@H](Cc1ccccc1)NC(=O)[C@H](CC(N)=O)NC(=O)[C@H](C)NC(=O)[C@H](CC(C)C)NC(=O)[C@H](CCCNC(=N)N)NC(=O)[C@H](CCC(N)=O)NC(=O)[C@@H](NC(=O)[C@H](C)NC(=O)[C@@H]1CSSC[C@H](NC(=O)[C@@H](N)CCCCNC(=O)COCCOCCNC(=O)COCCOCCNC(=O)CC[C@H](NC(=O)CCCCCCCCCCCCCCCCCCC(=O)O)C(=O)O)C(=O)N[C@@H](CC(N)=O)C(=O)N[C@@H]([C@@H](C)O)C(=O)N[C@@H](C)C(=O)N[C@@H]([C@@H](C)O)C(=O)N1)[C@@H](C)O)C(=O)N1CCC[C@H]1C(=O)N[C@@H](CO)C(=O)N[C@@H](CO)C(=O)N[C@H](C(=O)N[C@@H](CC(N)=O)C(=O)N[C@H](C(=O)NCC(=O)N[C@@H](CO)C(=O)N[C@@H](CCC(=O)O)C(=O)N[C@H](C(=O)N[C@@H](Cc1ccc(O)cc1)C(N)=O)[C@@H](C)O)C(C)C)[C@@H](C)O
notes: Synthetic analogue; also called compound 25
B2: N^ε1-[2-[2-[2-[[(4S)-4-carboxy-4-(19-carboxynonadecanoylamino)butanoyl]amino]ethoxy]ethoxy]acetyl]-[Arg17,Pro21,Pro27,Pro31]-h-amylin (peptide)
peptide: K([AEEA-γGlu-C20 diacid])CNTATCATQRLANFLRHSSPNFGAIPSSTPVGSNTY-NH2
modifications: disulfide 2-7; N-terminus assumed
SMILES: CC[C@H](C)[C@H](NC(=O)[C@H](C)NC(=O)CNC(=O)[C@H](Cc1ccccc1)NC(=O)[C@H](CC(N)=O)NC(=O)[C@@H]1CCCN1C(=O)[C@H](CO)NC(=O)[C@H](CO)NC(=O)[C@H](Cc1c[nH]cn1)NC(=O)[C@H](CCCNC(=N)N)NC(=O)[C@H](CC(C)C)NC(=O)[C@H](Cc1ccccc1)NC(=O)[C@H](CC(N)=O)NC(=O)[C@H](C)NC(=O)[C@H](CC(C)C)NC(=O)[C@H](CCCNC(=N)N)NC(=O)[C@H](CCC(N)=O)NC(=O)[C@@H](NC(=O)[C@H](C)NC(=O)[C@@H]1CSSC[C@H](NC(=O)[C@@H](N)CCCCNC(=O)COCCOCCNC(=O)CC[C@H](NC(=O)CCCCCCCCCCCCCCCCCCC(=O)O)C(=O)O)C(=O)N[C@@H](CC(N)=O)C(=O)N[C@@H]([C@@H](C)O)C(=O)N[C@@H](C)C(=O)N[C@@H]([C@@H](C)O)C(=O)N1)[C@@H](C)O)C(=O)N1CCC[C@H]1C(=O)N[C@@H](CO)C(=O)N[C@@H](CO)C(=O)N[C@H](C(=O)N1CCC[C@H]1C(=O)N[C@H](C(=O)NCC(=O)N[C@@H](CO)C(=O)N[C@@H](CC(N)=O)C(=O)N[C@H](C(=O)N[C@@H](Cc1ccc(O)cc1)C(N)=O)[C@@H](C)O)C(C)C)[C@@H](C)O
notes: Synthetic analogue; also called compound 49
B3: N^ε1-[2-[2-[2-[[(4S)-4-carboxy-4-(19-carboxynonadecanoylamino)butanoyl]amino]ethoxy]ethoxy]acetyl]-[Arg17,Pro21,Pro27,Glu35]-h-amylin (peptide)
peptide: K([AEEA-γGlu-C20 diacid])CNTATCATQRLANFLRHSSPNFGAIPSSTNVGSETY-NH2
modifications: disulfide 2-7; N-terminus assumed
SMILES: CC[C@H](C)[C@H](NC(=O)[C@H](C)NC(=O)CNC(=O)[C@H](Cc1ccccc1)NC(=O)[C@H](CC(N)=O)NC(=O)[C@@H]1CCCN1C(=O)[C@H](CO)NC(=O)[C@H](CO)NC(=O)[C@H](Cc1c[nH]cn1)NC(=O)[C@H](CCCNC(=N)N)NC(=O)[C@H](CC(C)C)NC(=O)[C@H](Cc1ccccc1)NC(=O)[C@H](CC(N)=O)NC(=O)[C@H](C)NC(=O)[C@H](CC(C)C)NC(=O)[C@H](CCCNC(=N)N)NC(=O)[C@H](CCC(N)=O)NC(=O)[C@@H](NC(=O)[C@H](C)NC(=O)[C@@H]1CSSC[C@H](NC(=O)[C@@H](N)CCCCNC(=O)COCCOCCNC(=O)CC[C@H](NC(=O)CCCCCCCCCCCCCCCCCCC(=O)O)C(=O)O)C(=O)N[C@@H](CC(N)=O)C(=O)N[C@@H]([C@@H](C)O)C(=O)N[C@@H](C)C(=O)N[C@@H]([C@@H](C)O)C(=O)N1)[C@@H](C)O)C(=O)N1CCC[C@H]1C(=O)N[C@@H](CO)C(=O)N[C@@H](CO)C(=O)N[C@H](C(=O)N[C@@H](CC(N)=O)C(=O)N[C@H](C(=O)NCC(=O)N[C@@H](CO)C(=O)N[C@@H](CCC(=O)O)C(=O)N[C@H](C(=O)N[C@@H](Cc1ccc(O)cc1)C(N)=O)[C@@H](C)O)C(C)C)[C@@H](C)O
notes: Synthetic analogue; also called compound 26
B4: N^ε1-[(4S)-4-carboxy-4-(19-carboxynonadecanoylamino)butanoyl]-[Arg17,Pro21,Pro27,Glu35]-h-amylin (peptide)
peptide: K([γGlu-C20 diacid])CNTATCATQRLANFLRHSSPNFGAIPSSTNVGSETY-NH2
modifications: disulfide 2-7; N-terminus assumed
SMILES: CC[C@H](C)[C@H](NC(=O)[C@H](C)NC(=O)CNC(=O)[C@H](Cc1ccccc1)NC(=O)[C@H](CC(N)=O)NC(=O)[C@@H]1CCCN1C(=O)[C@H](CO)NC(=O)[C@H](CO)NC(=O)[C@H](Cc1c[nH]cn1)NC(=O)[C@H](CCCNC(=N)N)NC(=O)[C@H](CC(C)C)NC(=O)[C@H](Cc1ccccc1)NC(=O)[C@H](CC(N)=O)NC(=O)[C@H](C)NC(=O)[C@H](CC(C)C)NC(=O)[C@H](CCCNC(=N)N)NC(=O)[C@H](CCC(N)=O)NC(=O)[C@@H](NC(=O)[C@H](C)NC(=O)[C@@H]1CSSC[C@H](NC(=O)[C@@H](N)CCCCNC(=O)CC[C@H](NC(=O)CCCCCCCCCCCCCCCCCCC(=O)O)C(=O)O)C(=O)N[C@@H](CC(N)=O)C(=O)N[C@@H]([C@@H](C)O)C(=O)N[C@@H](C)C(=O)N[C@@H]([C@@H](C)O)C(=O)N1)[C@@H](C)O)C(=O)N1CCC[C@H]1C(=O)N[C@@H](CO)C(=O)N[C@@H](CO)C(=O)N[C@H](C(=O)N[C@@H](CC(N)=O)C(=O)N[C@H](C(=O)NCC(=O)N[C@@H](CO)C(=O)N[C@@H](CCC(=O)O)C(=O)N[C@H](C(=O)N[C@@H](Cc1ccc(O)cc1)C(N)=O)[C@@H](C)O)C(C)C)[C@@H](C)O
notes: Synthetic analogue; also called compound 27
B5: N^ε1-[(4S)-4-carboxy-4-(19-carboxynonadecanoylamino)butanoyl]-[Arg17,Pro21,Pro27,Lys35]-h-amylin (peptide)
peptide: K([γGlu-C20 diacid])CNTATCATQRLANFLRHSSPNFGAIPSSTNVGSKTY-NH2
modifications: disulfide 2-7; N-terminus assumed
SMILES: CC[C@H](C)[C@H](NC(=O)[C@H](C)NC(=O)CNC(=O)[C@H](Cc1ccccc1)NC(=O)[C@H](CC(N)=O)NC(=O)[C@@H]1CCCN1C(=O)[C@H](CO)NC(=O)[C@H](CO)NC(=O)[C@H](Cc1c[nH]cn1)NC(=O)[C@H](CCCNC(=N)N)NC(=O)[C@H](CC(C)C)NC(=O)[C@H](Cc1ccccc1)NC(=O)[C@H](CC(N)=O)NC(=O)[C@H](C)NC(=O)[C@H](CC(C)C)NC(=O)[C@H](CCCNC(=N)N)NC(=O)[C@H](CCC(N)=O)NC(=O)[C@@H](NC(=O)[C@H](C)NC(=O)[C@@H]1CSSC[C@H](NC(=O)[C@@H](N)CCCCNC(=O)CC[C@H](NC(=O)CCCCCCCCCCCCCCCCCCC(=O)O)C(=O)O)C(=O)N[C@@H](CC(N)=O)C(=O)N[C@@H]([C@@H](C)O)C(=O)N[C@@H](C)C(=O)N[C@@H]([C@@H](C)O)C(=O)N1)[C@@H](C)O)C(=O)N1CCC[C@H]1C(=O)N[C@@H](CO)C(=O)N[C@@H](CO)C(=O)N[C@H](C(=O)N[C@@H](CC(N)=O)C(=O)N[C@H](C(=O)NCC(=O)N[C@@H](CO)C(=O)N[C@@H](CCCCN)C(=O)N[C@H](C(=O)N[C@@H](Cc1ccc(O)cc1)C(N)=O)[C@@H](C)O)C(C)C)[C@@H](C)O
notes: Synthetic analogue; also called compound 35

Numbered stars: 1 amine (or outer) side, 2 acyl side, 3 side chain; on linkers, the order of the positions; unused ones are H or OH. Bridge positions count the residues as written; N and C are the ends. Side chains are listed from the residue outwards. Ends that are not written are not given here. * marks the point of attachment. C20 diacid = O=C(O)CCCCCCCCCCCCCCCCCCC(=O)*; γGlu = O=C(O)[C@H](CCC(=O)[*:2])N[*:1]; AEEA = NCCOCCOCC(=O)O

For the first assay, the target named is T1, human calcitonin receptor (human, UniProt P30988 25-474).
T1 construct: whole, on cells; Assay used cell membranes of the transfected BHK cells; also called hCTR; hCT
T1 sequence (looked up): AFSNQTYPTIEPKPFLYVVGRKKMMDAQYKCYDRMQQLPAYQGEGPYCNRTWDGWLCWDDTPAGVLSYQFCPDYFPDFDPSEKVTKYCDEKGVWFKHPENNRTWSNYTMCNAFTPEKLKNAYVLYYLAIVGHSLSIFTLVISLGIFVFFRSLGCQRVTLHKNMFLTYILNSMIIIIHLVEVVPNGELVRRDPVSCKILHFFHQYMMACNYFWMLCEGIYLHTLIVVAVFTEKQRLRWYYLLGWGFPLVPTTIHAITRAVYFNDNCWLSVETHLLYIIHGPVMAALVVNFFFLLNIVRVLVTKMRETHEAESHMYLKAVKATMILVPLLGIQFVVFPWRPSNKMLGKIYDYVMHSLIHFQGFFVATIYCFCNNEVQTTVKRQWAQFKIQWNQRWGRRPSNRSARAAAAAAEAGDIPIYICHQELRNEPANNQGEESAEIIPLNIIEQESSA
The assay is described as follows: ratio IC50 hCTR / IC50 hAmylin-R of the two SPA competition assays; reference: human amylin receptor. The method, then: The resulting pellet was resuspended, homogenized and centrifuged (20.000 rpm, 15 min) in a buffer containing 20 mM Na-HEPES and 0.1 mM EDTA (pH 7.4, buffer 2). The resulting pellet was resuspended in buffer 2 and protein concentration was measured (BCA protein Assay, Pierce). The homogenate was kept cold during the whole procedure. The membranes were kept at −80° C. until use. The assay was performed in a 384 well Optiplate (PerkinElmer) in a total volume of 40 ul. Membranes were mixed with SPA beads. Final concentration of membranes 35 ng/μL final and SPA beads was 0.05 mg/well. Test-compounds were dissolved in DMSO and further diluted in assay buffer (50 mM Hepes, pH 7.4, 1 mM CaCl2, 5 mM MgCl₂, 0.1% OA and 0.02% Tween20). […] The final mixture was incubated with shaking at 400 rpm for 120 min at 25° C. prior to centrifugation (1500 rpm, 10 min). Samples were analyzed on TopCounter™ (Packard). The IC₅₀ was calculated using (one site binding competition analysis) GraphPad Prism5 as a measure of receptor affinity.
Membranes were prepared in the following way; the cells were rinsed with PBS and incubated with Versene for approximately 5 min before harvesting. The cells were flushed with PBS and the cell-suspension was centrifuged for 5 min at 1000 rpm. Cells were homogenized (Ultrathurrax) in a buffer containing 20 mM Na-HEPES and 10 mM EDTA (pH 7.4) and centrifuged at 20.000 rpm for 15 min. The resulting pellet was resuspended, homogenized and centrifuged (20.000 rpm, 15 min) in a buffer containing 20 mM Na-HEPES and 0.1 mM EDTA (pH 7.4, buffer 2). The resulting pellet was resuspended in buffer 2 and protein concentration was measured (BCA protein Assay, Pierce). The homogenate was kept cold during the whole procedure. The membranes were kept at −80° C. until use. Assay was performed in a 384 well Optiplate (PerkinElmer) in a total volume of 40 ul. Membranes were mixed with SPA beads.
In the case of B1, the “Ratio hCT/hAmylin binding” value worked out at 56.5.

Turning to B2, the “Ratio hCT/hAmylin binding” value was 10.8.

Consider B3, for which the “Ratio hCT/hAmylin binding” value is 47.5.

For B4, the “Ratio hCT/hAmylin binding” value was 41.3.

B5: the “Ratio hCT/hAmylin binding” value was 50.3.

A further assay concerns the target T1, human calcitonin receptor. Put plainly: SPA radioligand competition (125I-calcitonin), membranes of BHK cells with human calcitonin receptor. The gist of the method: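 BHK hCTR membranes 35 ng/μL + SPA beads 0.05 mg/well; buffer 50 mM Hepes pH 7.4, 1 mM CaCl2, 5 mM MgCl₂, 0.1% OA, 0.02% Tween20. 120 min, 25° C., shaking. Scintillation count; IC50 by one-site binding competition.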
Regarding B1, the IC50 is 43.4 nM.

As for B2, the IC50 was 12.9 nM.

For B3, the IC50 was determined as 25.3 nM.

Consider B4, for which the IC50 came to 34.5 nM.

Regarding B5, the half-maximal inhibitory concentration (IC50) came out at 48.8 nM.

The record behind these values is patent publication US20140087995A1 (published 2014).
